According to patent US20220143148A1, “COMPOSITIONS AND METHODS FOR MODULATING CGRP SIGNALING TO REGULATE INTESTINAL INNATE LYMPHOID CELLS” (The Broad Institute, Inc., priority 2019, published 2022):

Tested on: small intestinal immune cells
Assay: Droplet-based scRNA-seq of small intestinal immune cells (LP and PP), OVA vs PBS, clustering and differential expression
Format: in vivo, mouse
Conditions: cluster ID 5, PP
Source text: To comprehensively characterize small intestinal immune cells, Applicants generated scRNA-Seq profiles for 58,067 immune cells collected from lamina propria (LP) and Peyer's patch (PP) regions at steady state and after induction of a type 2 inflammatory reaction to ovalbumin (OVA) (Brandt et al., 2003) (FIGS. 1A and 8A). To ensure sufficient representation of rare cells, Applicants combined a normalization strategy—removing by flow sorting either a portion of IgD+ naïve B cells, which are the most abundant cell type in PPs, or all CD19+ and CD3+ T cells (FIG. 8B, Methods)—with profiling of a sufficiently large number of cells number (P>0.99 to recover at least 15 cells from each cluster, Methods) by massively parallel scRNA-seq (Haber et al., 2017) (Methods). Applicants obtained 36,797 and 21,270 high quality cells passing initial filtering (Methods) from PP and LP regions, respectively.
Overall, Applicants annotated 27 cell subsets across the two compartments, spanning T cells, B cells, ILCs, dendritic cells (DCs), myeloid cells and stromal cells, in frequencies ranging from 0.07% to 14%. Briefly, Applicants first partitioned the cells from the PP regions by unsupervised clustering (Methods) into 46 clusters, retained the 97% of cells that were robustly assigned cell identities in each cluster (Methods), assigned the cells from the LP regions to the 46 clusters using a classifier (Methods), and visualized the data with scvis (Ding et al., 2018), a deep generative model-based method (FIGS. 1B and 8C, Methods). Next, Applicants identified genes that were differentially expressed between the cells in each cluster and the remaining cells (Table 1, Methods), as well as between pairs of clusters (Table 2), to elucidate identities of similar cell types/states. Applicants excluded from downstream analysis clusters mostly consisting of contaminants from epithelium, likely doublets, or cells with a small number of Unique Molecular Identifiers (UMIs) (FIGS. 1C and 8D), or lacking distinct markers (Methods). Altogether, Applicants retained 27 clusters spanning 85% of the cells and each associated with distinct marker genes (FIG. 8E, Methods).
To induce allergic reaction to OVA, 6 to 7 weeks old mice were sensitized twice, two weeks apart, with 50 μg of OVA plus 1 mg of aluminum potassium sulfate adjuvant via intraperitoneal injection. Two weeks later, mice were orally administered with 50 mg of OVA on every other day for a total of five times. 1 μg of α-CGRP peptide was administered simultaneously when indicated. Mice were deprived of food for 3-4 hours in cages with wood chip bedding for limiting antigen degradation in the stomach before each intragastric challenge.
Isolation of cells from Peyer's patches (PPs). Peyer's patches (PPs) were carefully dissected from the small intestine under a stereo microscope using a fine scissor, pierced once with a fine forcep. Tissues were digested in freshly made digestion buffer (RPMI-1640 containing 100 μg/ml Liberase™ and 50 μg/ml DNase I at 37° C. on a roto-mixer. After 15 min, tissues were very gently mixed using a 1 ml pipette. The supernatant was collected and added to ice-cold MACS buffer (pH 7.4; PBS plus 2% FCS and 2 mM EDTA). Pre-warmed (37° C.) fresh digestion buffer was added to the remaining tissues. After rotation at 37° C. for 15 min, the mixture was vigorously mixed using a 1 ml pipette for 1 min. Supernatants from the two steps were combined and passed through 70 μm filters and stained for FACS (below).
Isolation of cells from the lamina propria (LP). The small intestines were opened longitudinally and washed in ice-cold PBS. For scRNA-seq, roughly 0.5 cm of fragments from each of the distal, middle and proximal regions without visible PPs were collected. Epithelial cells were dissociated by tissue rotation in pre-warmed (37° C.) PBS containing 10 mM EDTA at 37° C. for 15 min, followed by additional incubation on ice for 15 min. Tissues were then shaken vigorously. […]

B1: OVA (protein, UniProt P01012 2-386, looked up)
Ovalbumin: GSIGAASMEFCFDVFKELKVHHANENIFYCPIAIMSALAMVYLGAKDSTRTQINKVVRFDKLPGFGDSIEAQCGTSVNVHSSLRDILNQITKPNDVYSFSLASRLYAEERYPILPEYLQCVKELYRGGLEPINFQTAADQARELINSWVESQTNGIIRNVLQPSSVDSQTAMVLVNAIVFKGLWEKAFKDEDTQAMPFRVTEQESKPVQMMYQIGLFRVASMASEKMKILELPFASGTMSMLVLLPDEVSGLEQLESIINFEKLTEWTSSNVMEERKIKVYLPRMKMEEKYNLTSVLMAMGITDVFSSSANLSGISSAESLKISQAVHAAHAEINEAGREVVGSAEAGVDAASVSEEFRADHPFLFCIKHIATNAVLFFGRCVSP
With B1 the “Calm1: percentage of expressing cells in OVA-treated group” value was 0.868, the “Cd74: percentage of expressing cells in OVA-treated group” value was 0.501 and the “Crlf3: percentage of expressing cells in OVA-treated group” value was 0.569. For the same molecule, the “Ctsc: percentage of expressing cells in OVA-treated group” value was 0.268, the “Ddit4: percentage of expressing cells in OVA-treated group” value was 0.369 and the “Dnaja1: percentage of expressing cells in OVA-treated group” value was 0.591. The “Dnajb1: percentage of expressing cells in OVA-treated group” value was 0.206, the “Dusp1: percentage of expressing cells in OVA-treated group” value was 0.206 and the “DynIl1: percentage of expressing cells in OVA-treated group” value was 0.7. For the same molecule, the “Gramd3: percentage of expressing cells in OVA-treated group” value was 0.475, the “Hspa8: percentage of expressing cells in OVA-treated group” value was 0.977 and the “Ier2: percentage of expressing cells in OVA-treated group” value was 0.428. The “Ifngr1: percentage of expressing cells in OVA-treated group” value was 0.563, the “Igha: percentage of expressing cells in OVA-treated group” value was 0.197 and the “Il7r: percentage of expressing cells in OVA-treated group” value was 0.48. For the same molecule, the “Ilk: percentage of expressing cells in OVA-treated group” value was 0.2, the “Jund: percentage of expressing cells in OVA-treated group” value was 0.654 and the “Klf6: percentage of expressing cells in OVA-treated group” value was 0.368. For the same molecule, the “Klhl6: percentage of expressing cells in OVA-treated group” value was 0.332, the “Lfng: percentage of expressing cells in OVA-treated group” value was 0.333 and the “Ltb: percentage of expressing cells in OVA-treated group” value was 0.865. The “Pdcd4: percentage of expressing cells in OVA-treated group” value was 0.66, the “Pik3ip1: percentage of expressing cells in OVA-treated group” value was 0.556 and the “Ppp1r15a: percentage of expressing cells in OVA-treated group” value was 0.219. For the same molecule, the “Ppp2ca: percentage of expressing cells in OVA-treated group” value was 0.277, the “Ppp3cc: percentage of expressing cells in OVA-treated group” value was 0.152 and the “Racgap1: percentage of expressing cells in OVA-treated group” value was 0.21. The “Rnaset2a: percentage of expressing cells in OVA-treated group” value was 0.709, the “Sfpq: percentage of expressing cells in OVA-treated group” value was 0.284 and the “Slc9a3r1: percentage of expressing cells in OVA-treated group” value was 0.428. For the same molecule, the “Tdrp: percentage of expressing cells in OVA-treated group” value was 0.228, the “Tpm3: percentage of expressing cells in OVA-treated group” value was 0.665 and the “Tsc22d3: percentage of expressing cells in OVA-treated group” value was 0.84. For the same molecule, the “Tuba1a: percentage of expressing cells in OVA-treated group” value was 0.302, the “Txnip: percentage of expressing cells in OVA-treated group” value was 0.605 and the “Uba52: percentage of expressing cells in OVA-treated group” value was 0.984. The “Ucp2: percentage of expressing cells in OVA-treated group” value was 0.773, the “Wdr89: percentage of expressing cells in OVA-treated group” value was 0.996 and the “Zfp36l2: percentage of expressing cells in OVA-treated group” value was 0.617. The “1810037l17Rik: LN (average fold change)” value (OVA vs PBS) was −0.158, the “Bcl2: LN (average fold change)” value (OVA vs PBS) was 0.658 and the “Calm1: LN (average fold change)” value (OVA vs PBS) was −0.192. The “Cd74: LN (average fold change)” value (OVA vs PBS) was −0.211, the “Crlf3: LN (average fold change)” value (OVA vs PBS) was 0.370 and the “Ctsc: LN (average fold change)” value (OVA vs PBS) was 0.402. For the same molecule, the “Ddit4: LN (average fold change)” value (OVA vs PBS) was 0.426, the “Dnaja1: LN (average fold change)” value (OVA vs PBS) was −0.416 and the “Dnajb1: LN (average fold change)” value (OVA vs PBS) was −0.867. The “Dusp1: LN (average fold change)” value (OVA vs PBS) was −0.321, the “DynIl1: LN (average fold change)” value (OVA vs PBS) was −0.370 and the “Gramd3: LN (average fold change)” value (OVA vs PBS) was 0.481. The “Hspa8: LN (average fold change)” value (OVA vs PBS) was −0.255, the “Ier2: LN (average fold change)” value (OVA vs PBS) was −0.174 and the “Ifngr1: LN (average fold change)” value (OVA vs PBS) was 0.536. For the same molecule, the “Igha: LN (average fold change)” value (OVA vs PBS) was 0.503, the “Il7r: LN (average fold change)” value (OVA vs PBS) was 0.612 and the “Ilk: LN (average fold change)” value (OVA vs PBS) was 0.159. The “Jund: LN (average fold change)” value (OVA vs PBS) was −0.319, the “Klf6: LN (average fold change)” value (OVA vs PBS) was −0.374 and the “Klhl6: LN (average fold change)” value (OVA vs PBS) was 0.485. For the same molecule, the “Lfng: LN (average fold change)” value (OVA vs PBS) was −0.281, the “Ltb: LN (average fold change)” value (OVA vs PBS) was −0.238 and the “Pdcd4: LN (average fold change)” value (OVA vs PBS) was 0.394. For the same molecule, the “Pik3ip1: LN (average fold change)” value (OVA vs PBS) was 0.361, the “Ppp1r15a: LN (average fold change)” value (OVA vs PBS) was −0.287 and the “Ppp2ca: LN (average fold change)” value (OVA vs PBS) was −0.469. The “Ppp3cc: LN (average fold change)” value (OVA vs PBS) was 0.621, the “Racgap1: LN (average fold change)” value (OVA vs PBS) was 0.436 and the “Rnaset2a: LN (average fold change)” value (OVA vs PBS) was 0.225. For the same molecule, the “Sfpq: LN (average fold change)” value (OVA vs PBS) was −0.373, the “Slc9a3r1: LN (average fold change)” value (OVA vs PBS) was −0.256 and the “Tdrp: LN (average fold change)” value (OVA vs PBS) was −0.354. The “Tpm3: LN (average fold change)” value (OVA vs PBS) was 0.282, the “Tsc22d3: LN (average fold change)” value (OVA vs PBS) was 0.772 and the “Tuba1a: LN (average fold change)” value (OVA vs PBS) was −0.250.
